Here are results for two substances from US20030022260.

The target of series [1] is GAD-E2F-5/LexA-DP-1 in yeast (Mus musculus) (UniProt Q61502+Q08639). The experiment in a line: cell_activity. The following applies: yeast lacZ reporter.
For series [2], the system named is HA-E2F-5/DP-1 in cells (Homo sapiens). As to the kind of experiment: cell_activity. The following applies: U2-OS CAT reporter; E2F-5 plus DP-1.

GAD-E2F-5/LexA-DP-1 in yeast (Mus musculus), sequence (Q61502 whole entry, chain 1 of 2): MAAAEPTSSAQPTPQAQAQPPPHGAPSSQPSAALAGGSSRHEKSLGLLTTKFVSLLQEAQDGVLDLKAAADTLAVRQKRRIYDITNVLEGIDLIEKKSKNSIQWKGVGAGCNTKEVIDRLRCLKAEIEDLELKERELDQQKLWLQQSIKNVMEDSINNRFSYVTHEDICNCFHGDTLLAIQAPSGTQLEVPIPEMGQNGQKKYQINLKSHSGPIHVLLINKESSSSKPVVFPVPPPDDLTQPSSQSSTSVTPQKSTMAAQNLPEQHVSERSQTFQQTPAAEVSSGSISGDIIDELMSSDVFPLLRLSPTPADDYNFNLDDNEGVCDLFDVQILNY
GAD-E2F-5/LexA-DP-1 in yeast (Mus musculus), sequence (Q08639 whole entry, chain 2 of 2): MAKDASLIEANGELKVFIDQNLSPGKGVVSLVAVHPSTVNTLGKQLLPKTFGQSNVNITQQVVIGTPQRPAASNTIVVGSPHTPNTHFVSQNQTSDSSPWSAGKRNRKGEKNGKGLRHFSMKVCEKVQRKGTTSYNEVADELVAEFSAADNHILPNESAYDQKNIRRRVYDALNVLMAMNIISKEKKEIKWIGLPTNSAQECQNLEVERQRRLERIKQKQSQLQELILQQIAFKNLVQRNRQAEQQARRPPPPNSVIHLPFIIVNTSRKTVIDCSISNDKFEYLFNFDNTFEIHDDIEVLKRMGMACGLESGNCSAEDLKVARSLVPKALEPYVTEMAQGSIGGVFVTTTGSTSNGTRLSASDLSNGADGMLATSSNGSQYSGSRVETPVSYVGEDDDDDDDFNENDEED

Regarding “p4xWT CYC1 reporter, four wild-type E2F sites”, the activity (fold activation) in series [1] was > 6.

For E2F4-CAT reporter, four E2F sites, the activity (fold activation) in series [2] was > 100.
